Here are results for one protein from PMC6431053, “Enzyme kinetics of dUTPase from the planarian Dugesia ryukyuensis” (BMC Research Notes, 2019).

Substrate in data set [1]: O=c1ccn([C@H]2C[C@H](O)[C@@H](COP(=O)(O)OP(=O)(O)OP(=O)(O)O)O2)c(=O)[nH]1
In words: purified protein. Type of data set: biochemical, Dugesia ryukyuensis. Particulars: 5 mM MgCl2, 100 mM KCl, 0.25 mM Bicine, pH 8.2, 25 °C, 10 µM dUTP, n = 7, kcat assumes three active sites per trimer, 25.0 °C.

Substrate in data set [2]: Cc1cn([C@H]2C[C@H](O)[C@@H](COP(=O)(O)OP(=O)(O)OP(=O)(O)O)O2)c(=O)[nH]c1=O
Nature of the data set: purified protein. Particulars: 5 mM MgCl2, 100 mM KCl, 0.25 mM Bicine, pH 8.2, 100 µM nucleotide, 4–6 µM enzyme, n = 3. Type of data set: biochemical, Dugesia ryukyuensis.

B1: Dr-dUTPase (Dugesia ryukyuensis; R66K) (protein)
chain: MSALKVLRFKKLSENATVPSRGSVLAAGFDLCSAENCVIPARGKQLVKTDIQISLPEGCYGRVAPKSGLALKHFIDVGAGVIDQDYRGNVGIVMFNFSENEFPISKGDRIAQLICERIYTPELLECESLDETERGEGGYGSTGINNSSQKNGH
notes: full-length 153 aa ORF, codon-optimized, pET-15b, E. coli BL21(DE3); His-tag cut by thrombin, N-terminal GSH left; 156 aa, 16,807 Da; R66K (G197A) removes internal thrombin site
B1: in data set [1], the Km – broadly, the concentration of substrate that gives half-maximal velocity – came to 4.0 ± 0.4 µM; the kcat (as a rule, the maximal rate divided by the concentration of active sites) came out at 34 s⁻¹; the kcat/Km (usually the turnover number divided by the Michaelis constant) was found to be 8.5e+06 ± 1.1e+06 M⁻¹ s⁻¹. For the same protein, in data set [2], the Km is 1.1 × 10^2 ± 7.2 μM, the kcat is 1.4 ± 0.3 s⁻¹ and the kcat/Km turned out to be 13000 ± 2800 M⁻¹ s⁻¹.
